In paper doi:10.1101/2019.12.26.888669:

Target: Escherichia coli thiol peroxidase, oxidized (disulfide) state (Escherichia coli) (UniProt P0A862)
Assay: SEC-MALS

stoichiometry N: 3
Substance: Escherichia coli thiol peroxidase, oxidized (disulfide) state (from UniProt P0A862 1-168) (enzyme)
